Reference: the supplement of paper PMC10567573

B1: DYRK1B (parent)
chain: YQGPGTRRLQEVLGVQTGGPGGRR

Variants of: B1
Experiment: protein stability index of a GFP-peptide fusion (GPS, HEK-293T) (PSI 1-6); higher = more stable
Details: c terminus: a fixed tail appended
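Note: lentivirally expressed fusions sorted by FACS into six bins by GFP to DsRed ratio, PSI derived from sequencing read proportions per bin multiplied by bin number.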

| Variant | protein stability index |
| --- | --- |
| YQGPGTRRLQEVLGVQTGGEGGRR [P20E] | 3.3 |
| YQGPGTRRLQEVLGVQTGGDGGRR [P20D] | 3.51 |
| YQGPGTRRLQEVLGVQTGGNGGRR [P20N] | 3.1 |
| YQGPGTRRLQEVLGVQTGGKGGRR [P20K] | 3.83 |
| YQGPGTRRLQEVLGVQTGGLGGRR [P20L] | 2.82 |
| YQGPGTRRLQEVLGVQTGGGGGRR [P20G] | 3.15 |
| YQGPGTRRLQEVLGVQTGGAGGRR [P20A] | 3.22 |
| YQGPGTRRLQEVLGVQTGGQGGRR [P20Q] | 3.16 |
| YQGPGTRRLQEVLGVQTGGRGGRR [P20R] | 3.39 |
| YQGPGTRRLQEVLGVQTGGMGGRR [P20M] | 3.02 |
| YQGPGTRRLQEVLGVQTGGHGGRR [P20H] | 2.81 |
| YQGPGTRRLQEVLGVQTGGFGGRR [P20F] | 2.32 |
| YQGPGTRRLQEVLGVQTGGCGGRR [P20C] | 3.49 |
| YQGPGTRRLQEVLGVQTGGTGGRR [P20T] | 3.32 |
| YQGPGTRRLQEVLGVQTGGVGGRR [P20V] | 2.76 |
| YQGPGTRRLQEVLGVQTGGSGGRR [P20S] | 3.28 |
| YQGPGTRRLQEVLGVQTGGIGGRR [P20I] | 2.84 |
| YQGPGTRRLQEVLGVGTGGPGGRR [Q16G] | 3.42 |
| YQGPGTRRLQEVLGVKTGGPGGRR [Q16K] | 3.55 |
| YQGPGTRRLQEVLGVTTGGPGGRR [Q16T] | 2.78 |
| YQGPGTRRLQEVLGVHTGGPGGRR [Q16H] | 3.75 |
| YQGPGTRRLQEVLGVWTGGPGGRR [Q16W] | 2.26 |
| YQGPGTRRLQEVLGVETGGPGGRR [Q16E] | 3.39 |
| YQGPGTRRLQEVLGVVTGGPGGRR [Q16V] | 2.61 |

| Variant | protein stability index |
| --- | --- |
| YQGPGTRRLQEVLGVMTGGPGGRR [Q16M] | 2.98 |
| YQGPGTRRLQEVLGVNTGGPGGRR [Q16N] | 3.32 |
| YQGPGTRRLQEVLGVFTGGPGGRR [Q16F] | 2.01 |
| YQGPGTRRLQEVLGVYTGGPGGRR [Q16Y] | 3.19 |
| YQGPGTRRLQEVLGVCTGGPGGRR [Q16C] | 2.1 |
| YQGPGTRRLQEVLGVATGGPGGRR [Q16A] | 2.81 |
| YQGPGTRRLQEVLGVPTGGPGGRR [Q16P] | 2.77 |
| YQGPGTRRLQEVLGVLTGGPGGRR [Q16L] | 2.96 |
| YQGPGTRRLQEVLGVRTGGPGGRR [Q16R] | 3.09 |
| YQGPGTRRLQEVLGVSTGGPGGRR [Q16S] | 2.82 |
| YQGPGTRRLQEVLGVITGGPGGRR [Q16I] | 1.74 |
| YQGPGTRRLQEVLGVDTGGPGGRR [Q16D] | 4.06 |
| YQGPGTRRLQEVLGVQEGGPGGRR [T17E] | 3.44 |
| YQGPGTRRLQEVLGVQNGGPGGRR [T17N] | 3.83 |
| YQGPGTRRLQEVLGVQHGGPGGRR [T17H] | 3.69 |
| YQGPGTRRLQEVLGVQVGGPGGRR [T17V] | 3.62 |
| YQGPGTRRLQEVLGVQWGGPGGRR [T17W] | 2.49 |
| YQGPGTRRLQEVLGVQKGGPGGRR [T17K] | 3.24 |
| YQGPGTRRLQEVLGVQPGGPGGRR [T17P] | 3.5 |
| YQGPGTRRLQEVLGVQAGGPGGRR [T17A] | 3.27 |
| YQGPGTRRLQEVLGVQFGGPGGRR [T17F] | 2.85 |
| YQGPGTRRLQEVLGVQSGGPGGRR [T17S] | 2.77 |
| YQGPGTRRLQEVLGVQGGGPGGRR [T17G] | 3.66 |
| YQGPGTRRLQEVLGVQMGGPGGRR [T17M] | 3.24 |

| Variant | protein stability index |
| --- | --- |
| YQGPGTRRLQEVLGVQYGGPGGRR [T17Y] | 3.11 |
| YQGPGTRRLQEVLGVQLGGPGGRR [T17L] | 3.3 |
| YQGPGTRRLQEVLGVQQGGPGGRR [T17Q] | 3.47 |
| YQGPGTRRLQEVLGVQIGGPGGRR [T17I] | 2.75 |
| YQGPGTRRLQEVLGVQDGGPGGRR [T17D] | 3.45 |
| YQGPGTRRLQEVLGVQCGGPGGRR [T17C] | 2.95 |
| YQGPGTRRLQEVLGVQRGGPGGRR [T17R] | 2.8 |
| YQGPGTRRLVEVLGVQTGGPGGRR [Q10V] | 2.52 |
| YQGPGTRRLTEVLGVQTGGPGGRR [Q10T] | 3.39 |
| YQGPGTRRLYEVLGVQTGGPGGRR [Q10Y] | 2.25 |
| YQGPGTRRLQEVLSVQTGGPGGRR [G14S] | 3.14 |
| YQGPGTRRLQEVLRVQTGGPGGRR [G14R] | 3.37 |
| YQGPGTRRLQEVLYVQTGGPGGRR [G14Y] | 2.98 |
| YQGPGTRRLQEVLVVQTGGPGGRR [G14V] | 3.14 |
| YQGPGTRRLQEVLHVQTGGPGGRR [G14H] | 3.62 |
| YQGPGTRRLQEVLPVQTGGPGGRR [G14P] | 4.17 |
| YQGPGTRRLQEVLLVQTGGPGGRR [G14L] | 2.75 |
| YQGPGTRRLQEVLWVQTGGPGGRR [G14W] | 2.11 |
| YQGPGTRRLQEVLCVQTGGPGGRR [G14C] | 1.55 |
| YQGPGTRRLQEVLFVQTGGPGGRR [G14F] | 2.66 |
| YQGPGTRRLQEVLIVQTGGPGGRR [G14I] | 2.14 |
| YQGPGTRRLQEVLKVQTGGPGGRR [G14K] | 2.9 |
| YQGPGTRRLQEVLAVQTGGPGGRR [G14A] | 2.92 |
| YQGPGTRRLQEVLNVQTGGPGGRR [G14N] | 4.25 |

| Variant | protein stability index |
| --- | --- |
| YQGPGTRRLQEVLEVQTGGPGGRR [G14E] | 3.73 |
| YQGPGTRRLQEVLTVQTGGPGGRR [G14T] | 2.66 |
| YQGPGTRRLQEVLDVQTGGPGGRR [G14D] | 4.18 |
| YQGPGTRRLQEVLQVQTGGPGGRR [G14Q] | 3.72 |
| YQGPGTRRLQEVLMVQTGGPGGRR [G14M] | 3.25 |
| YQGPGTRRLQEVLGVQTGVPGGRR [G19V] | 3.19 |
| YQGPGTRRLQEVLGVQTGRPGGRR [G19R] | 2.47 |
| YQGPGTRRLQEVLGVQTGPPGGRR [G19P] | 3.66 |
| YQGPGTRRLQEVLGVQTGKPGGRR [G19K] | 3.43 |
| YQGPGTRRLQEVLGVQTGYPGGRR [G19Y] | 2.9 |
| YQGPGTRRLQEVLGVQTGDPGGRR [G19D] | 3.58 |
| YQGPGTRRLQEVLGVQTGHPGGRR [G19H] | 2.98 |
| YQGPGTRRLQEVLGVQTGAPGGRR [G19A] | 3.34 |
| YQGPGTRRLQEVLGVQTGEPGGRR [G19E] | 3.63 |
| YQGPGTRRLQEVLGVQTGQPGGRR [G19Q] | 3.05 |
| YQGPGTRRLQEVLGVQTGTPGGRR [G19T] | 3.44 |
| YQGPGTRRLQEVLGVQTGLPGGRR [G19L] | 2.81 |
| YQGPGTRRLQEVLGVQTGSPGGRR [G19S] | 2.81 |
| YQGPGTRRLQEVLGVQTGFPGGRR [G19F] | 3.33 |
| YQGPGTRRLQEVLGVQTGMPGGRR [G19M] | 2.75 |
| YQGPGTRRLQEVLGVQTGCPGGRR [G19C] | 2.87 |
| YQGPGTRRLQEVLGVQTGIPGGRR [G19I] | 2.85 |
